{"source": "patent US20080124811A1", "about": "(AbbVie / Abbott, published 2008)", "key": {"[1]": {"target": "T1, human brain natriuretic peptide, cyclic BNP (1-32c) (human, cyclic: ring closed by a disulfide bond between the two cysteine residues; biotinylated or acridinium-labelled in some assays)", "T1 construct": "also called hBNP; hBNP 1-32", "test": "Biacore SPR, antibody captured on goat anti-mouse Fc, BNP injected, 1:1 Langmuir fit", "protocol": "GAMFc in 10 mM sodium acetate (pH 5.0) is coupled to the activated surface with a 10 minute injection. The surface is then deactivated with 1 M ethanolamine pH 8.5 for 8 minutes followed by another 10 minute injection of GAMFc. This is followed with a biosensor conditioning of ten 60 second injections of 150 mM H₃PO₄ at a flow rate of 30 μL/min. ˜14 kRU, resonance units, of GAMFc is coupled to the biosensor in each flow cell.\nAfter loading each Ab onto the biosensor, all flow cells are allowed to equilibrate for 5-6 minutes with SPR running buffer at a flow rate of 75 μL/min before a 150 μL injection of BNP or running buffer followed by 360 seconds of dissociation time. Subsequently, the flow rate is changed to 30-100 μL/min and the surface is then regenerated with three 33-60 second pulses of 100-150 mM phosphoric acid at a flow rate of 30-100 μL/min."}, "[2]": {"target": "T1, human brain natriuretic peptide, cyclic …", "test": "surface plasmon resonance (BIAcore)"}, "[3]": {"target": "T1, human brain natriuretic peptide, cyclic …", "test": "off-rate assay on yeast-displayed scFv by flow cytometry: biotinylated cyclic BNP (1-32c), chase with unlabelled BNP 1-32c, SA:PE, first order decay fit"}, "[4]": {"target": "T1, human brain natriuretic peptide, cyclic …", "test": "off-rate assay on yeast-displayed scFv; improvement of koff over 3-631-436 wt"}, "[5]": {"target": "T1, human brain natriuretic peptide, cyclic …", "test": "BIAcore SPR, cAb captured on goat anti-human Fc, BNP in solution, 25 C", "protocol": "The carboxymethyl-dextran biosensor is activated with an 8 minute injection of a 1:1 mixture of 0.4 M EDC and 0.1 NHS at 20 μL/minute. GAHFc in 10 mM sodium acetate (pH 5.0) is coupled to the activated surface with a 10 minute injection. The surface is then deactivated with 1 M ethanolamine pH 8.5 for 8 minutes followed by another 10 minute injection of GAHFc.\nA frozen (−80° C.) aliquot of BNP in dH₂O at 100 μM is diluted into SPR Running Buffer to a concentration of 100 μM.\nThe sample solution is then switched back to SPR running buffer for another ˜7 hours. The surface is then regenerated with three 33 second pulses of 100 mM phosphoric acid at a flow rate of 100 μL/min."}, "[6]": {"target": "T1, human brain natriuretic peptide, cyclic …", "test": "KinExA, solution phase"}}}
{"binder": "3-631-436 (mIgG2bκ, IgG name AM1) (antibody, V domains shown, recombinant wild-type variable domains on mouse IgG2b/kappa) VH: QVQLQQPGAELVRPGASVKLSCKASGYTFTSYWMNWVKQRPEQGLEWIGRIDPYDSETHYNQKFKDKAILTVDKSSSTAFVQLTSLTSEDSAVYYCVSDGYWGAGTTVTVSS VL: DVVMTQTPLTLSVTTGQPASISCKSSQSLLDSDGKTYLNWLFQRPGESPKLLIYVVSKLESGVPDRFTGSGSGTDFTLKISRVEAEDLGVYYCLQATHFPWTFGGGTKLEIKR", "values": [{"measurement": "Kd", "setting": "[1]", "result": 363, "unit": "pM"}, {"measurement": "koff", "setting": "[1]", "result": 0.0029, "unit": "s⁻¹"}, {"measurement": "kon", "setting": "[1]", "result": "8.4e+06", "unit": "M⁻¹ s⁻¹"}]}
{"binder": "106.3 wt (Mouse IgG1) (antibody, V domains shown, also called HB-12044) VH: QLVQSGPELRKPGETVKISCKGSGYTFTHYGINWVKQTPRKDLKWMGWINTHTGEPIYADDFKGRFAFSLETSANTAYLQINNLNNGDMGTYFCTRSHRFGLDYWGQGTSVTVSS VL: DNVLTQSPPSLAVSLGQRATISCKASQSVDYNGDSYLNWYQQKPGQPPKFLIYAASNLESGIPARFSGSGSGTDFNLNIHPVEEEDAATYYCQQSNEDPFTFGSGTKLEIKR", "values": [{"measurement": "Kd", "setting": "[2]", "result": 18, "unit": "pM"}, {"measurement": "koff", "setting": "[2]", "result": 0.00022, "unit": "s⁻¹"}, {"measurement": "kon", "setting": "[2]", "result": "1.2e+07", "unit": "M⁻¹ s⁻¹"}]}
{"binder": "500-2 (scFv, selected by on/off-rate sorting; member of group m17) scFv (VH-linker-VL with V5 and 6His tags), displayed on yeast: QVQLQQPGAELVRPGASVKLSCKASGYTFTSYWMNWVKQRPEQGLEWIGRIDPYDSETHYNQKFKDKAILTVDKSSSTAFVQLTSLTSEDSAVYYCVSDGYWGAGTTVTVSSGPAKELTPLKEAKVSDVVMTQTPLTLSVTTGQPASISCKSSQSLLDSDGKTYLNWLFQRPGESPKLLIYWTTKLESGVPDRFTGSGSGTDFTLKISRVEAEDLGVYYCLQATHFPWTFGGGTKLEIKRAAALESRGPFEGKPIPNPLLGLDSTRTGHHHHHH", "values": [{"measurement": "koff", "setting": "[3]", "result": 0.00032, "unit": "s⁻¹"}, {"measurement": "Fold Improvement", "setting": "[4]", "result": 15, "unit": "fold"}]}
{"binder": "500-1 (scFv, selected by on/off-rate sorting; member of group m17) scFv (VH-linker-VL with V5 and 6His tags), displayed on yeast: QVQLQQPGAELVRPGASVKLSCKASGYTFTSYWMNWVKQRPEQGLEWIGRIDPYDSETHYNQKFKDKAILTVDKSSSTAFVQLTSLTSEDSAVYYCVSDGYWGAGTTVTVSSGPAKELTPLKEAKVSDVVMTQTPLTLSVTTGQPASISCKSSQSLLDSDGKTYLNWLFQRPGESPKLLIYWMDKLESGVPDRFTGSGSGTDFTLKISRVEAEDLGVYYCLQATHFPWTFGGGTKLEIKRAAALESRGPFEGKPIPNPLLGLDSTRTGHHHHHH", "values": [{"measurement": "koff", "setting": "[3]", "result": 0.00053, "unit": "s⁻¹"}, {"measurement": "Fold Improvement", "setting": "[4]", "result": 9, "unit": "fold"}]}
{"binder": "500-10 (scFv, selected by on/off-rate sorting; member of group m17) scFv (VH-linker-VL with V5 and 6His tags), displayed on yeast: QVQLQQPGAELVRPGASVKLSCKASGYTFTSYWMNWVKQRPEQGLEWIGRIDPYDSETHYNQKFKDKAILTVDKSSSTAFVQLTSLTSEDSAVYYCVSDGYWGAGTTVTVSSGPAKELTPLKEAKVSDVVMTQTPLTLSVTTGQPASISCKSSQSLLDSDGKTYLNWLFQRPGESPKLLIYVTDILESGVPDRFTGSGSGTDFTLKISRVEAEDLGVYYCLQATHFPWTFGGGTKLEIKRAAALESRGPFEGKPIPNPLLGLDSTRTGHHHHHH", "values": [{"measurement": "koff", "setting": "[3]", "result": 0.00049, "unit": "s⁻¹"}, {"measurement": "Fold Improvement", "setting": "[4]", "result": 10, "unit": "fold"}]}
{"binder": "L2 1 (scFv, selected by equilibrium sorting; member of group m17) scFv (VH-linker-VL with V5 and 6His tags), displayed on yeast: QVQLQQPGAELVRPGASVKLSCKASGYTFTSYWMNWVKQRPEQGLEWIGRIDPYDSETHYNQKFKDKAILTVDKSSSTAFVQLTSLTSEDSAVYYCVSDGYWGAGTTVTVSSGPAKELTPLKEAKVSDVVMTQTPLTLSVTTGQPASISCKSSQSLLDSDGKTYLNWLFQRPGESPKLLIYQNTKLESGVPDRFTGSGSGTDFTLKISRVEAEDLGVYYCLQATHFPWTFGGGTKLEIKRAAALESRGPFEGKPIPNPLLGLDSTRTGHHHHHH", "values": [{"measurement": "koff", "setting": "[3]", "result": 0.00025, "unit": "s⁻¹"}, {"measurement": "Fold Improvement", "setting": "[4]", "result": 19, "unit": "fold"}]}
{"binder": "L2 10 (scFv, selected by off-rate sorting; member of group m17) scFv (VH-linker-VL with V5 and 6His tags), displayed on yeast: QVQLQQPGAELVRPGASVKLSCKASGYTFTSYWMNWVKQRPEQGLEWIGRIDPYDSETHYNQKFKDKAILTVDKSSSTAFVQLTSLTSEDSAVYYCVSDGYWGAGTTVTVSSGPAKELTPLKEAKVSDVVMTQTPLTLSVTTGQPASISCKSSQSLLDSDGKTYLNWLFQRPGESPKLLIYRTNKLESGVPDRFTGSGSGTDFTLKISRVEAEDLGVYYCLQATHFPWTFGGGTKLEIKRAAALESRGPFEGKPIPNPLLGLDSTRTGHHHHHH", "values": [{"measurement": "koff", "setting": "[3]", "result": 0.0019, "unit": "s⁻¹"}, {"measurement": "Fold Improvement", "setting": "[4]", "result": 3, "unit": "fold"}]}
{"binder": "L2 8 (scFv, selected by equilibrium sorting; member of group m17) scFv (VH-linker-VL with V5 and 6His tags), displayed on yeast: QVQLQQPGAELVRPGASVKLSCKASGYTFTSYWMNWVKQRPEQGLEWIGRIDPYDSETHYNQKFKDKAILTVDKSSSTAFVQLTSLTSEDSAVYYCVSDGYWGAGTTVTVSSGPAKELTPLKEAKVSDVVMTQTPLTLSVTTGQPASISCKSSQSLLDSDGKTYLNWLFQRPGESPKLLIYWMNKLESGVPDRFTGSGSGTDFTLKISRVEAEDLGVYYCLQATHFPWTFGGGTKLEIKRAAALESRGPFEGKPIPNPLLGLDSTRTGHHHHHH", "values": [{"measurement": "koff", "setting": "[3]", "result": 0.00017, "unit": "s⁻¹"}, {"measurement": "Fold Improvement", "setting": "[4]", "result": 28, "unit": "fold"}]}
{"binder": "L2 4 (scFv, selected by equilibrium sorting; member of group m17) scFv (VH-linker-VL with V5 and 6His tags), displayed on yeast: QVQLQQPGAELVRPGASVKLSCKASGYTFTSYWMNWVKQRPEQGLEWIGRIDPYDSETHYNQKFKDKAILTVDKSSSTAFVQLTSLTSEDSAVYYCVSDGYWGAGTTVTVSSGPAKELTPLKEAKVSDVVMTQTPLTLSVTTGQPASISCKSSQSLLDSDGKTYLNWLFQRPGESPKLLIYHTTKLESGVPDRFTGSGSGTDFTLKISRVEAEDLGVYYCLQATHFPWTFGGGTKLEIKRAAALESRGPFEGKPIPNPLLGLDSTRTGHHHHHH", "values": [{"measurement": "koff", "setting": "[3]", "result": 0.0014, "unit": "s⁻¹"}, {"measurement": "Fold Improvement", "setting": "[4]", "result": 4, "unit": "fold"}]}
{"binder": "L2 9 (scFv, selected by off-rate sorting; member of group m17) scFv (VH-linker-VL with V5 and 6His tags), displayed on yeast: QVQLQQPGAELVRPGASVKLSCKASGYTFTSYWMNWVKQRPEQGLEWIGRIDPYDSETHYNQKFKDKAILTVDKSSSTAFVQLTSLTSEDSAVYYCVSDGYWGAGTTVTVSSGPAKELTPLKEAKVSDVVMTQTPLTLSVTTGQPASISCKSSQSLLDSDGKTYLNWLFQRPGESPKLLIYVTDKLESGVPDRFTGSGSGTDFTLKISRVEAEDLGVYYCLQATHFPWTFGGGTKLEIKRAAALESRGPFEGKPIPNPLLGLDSTRTGHHHHHH", "values": [{"measurement": "koff", "setting": "[3]", "result": 0.0005, "unit": "s⁻¹"}, {"measurement": "Fold Improvement", "setting": "[4]", "result": 10, "unit": "fold"}]}
{"binder": "L2 7 (scFv, selected by equilibrium sorting; member of group m17) scFv (VH-linker-VL with V5 and 6His tags), displayed on yeast: QVQLQQPGAELVRPGASVKLSCKASGYTFTSYWMNWVKQRPEQGLEWIGRIDPYDSETHYNQKFKDKAILTVDKSSSTAFVQLTSLTSEDSAVYYCVSDGYWGAGTTVTVSSGPAKELTPLKEAKVSDVVMTQTPLTLSVTTGQPASISCKSSQSLLDSDGKTYLNWLFQRPGESPKLLIYWMTKLESGVPDRFTGSGSGTDFTLKISRVEAEDLGVYYCLQATHFPWTFGGGTKLEIKRAAALESRGPFEGKPIPNPLLGLDSTRTGHHHHHH", "values": [{"measurement": "koff", "setting": "[3]", "result": 0.00015, "unit": "s⁻¹"}, {"measurement": "Fold Improvement", "setting": "[4]", "result": 32, "unit": "fold"}]}
{"binder": "wild-type 106.3 chimeric antibody (cAb) (antibody, human IgG1, V domains shown, Chimeric mouse variable domains on human IgG1/human kappa; also called anti-BNP WT/WT) VH: QIQLVQSGPELRKPGETVKISCKGSGYTFTHYGINWVKQTPRKDLKWMGWINTHTGEPIYADDFKGRFAFSLETSANTAYLQINNLNNGDMGTYFCTRSHRFGLDYWGQGTSVTVSS VL: DNVLTQSPPSLAVSLGQRATISCKASQSVDYNGDSYLNWYQQKPGQPPKFLIYAASNLESGIPARFSGSGSGTDFNLNIHPVEEEDAATYYCQQSNEDPFTFGSGTKLEIK", "values": [{"measurement": "Kd", "setting": "[5]", "result": 19, "unit": "pM"}, {"measurement": "koff", "setting": "[5]", "result": 0.00015, "unit": "s⁻¹"}, {"measurement": "kon", "setting": "[5]", "result": "7.8e+06", "unit": "M⁻¹ s⁻¹"}, {"measurement": "Kd", "setting": "[6]", "result": 1.7, "unit": "pM"}]}
